Where “and” joins values, the source holds several entries; their conditions need not be identical. Equal entries are not always repeated.

Experiment [1] concerns the target human TIM-3 protein with hFc tag (hTIM-3-hFc protein) (human) (UniProt Q8TDQ0). Kind of experiment: ELISA, hTIM-3-hFc coated at 1 ug/ml; antibody 0.11 nM. (An ELISA detects its analyte on a solid surface through an enzyme-linked reagent.)
The target is the same in experiment [2]. Kind of experiment: ELISA, hTIM-3-hFc coated at 1 ug/ml; antibody 0 nM (blank).
Experiment [3] shares this target. Briefly: ELISA, hTIM-3-hFc coated at 1 ug/ml; antibody 13.34 nM.
Experiment [4] shares this target. Kind of experiment: ELISA, hTIM-3-hFc coated at 1 ug/ml; antibody 0.021 nM.
Experiment [5] shares this target. Kind of experiment: ELISA, hTIM-3-hFc coated at 1 ug/ml; antibody 0.53 nM.
Experiment [6] shares this target. Briefly: ELISA, hTIM-3-hFc coated at 1 ug/ml; antibody 0.0043 nM.
Experiment [7] has the same target. Kind of experiment: ELISA, hTIM-3-hFc coated at 1 ug/ml; antibody 2.67 nM.
The target is the same in experiment [8]. Kind of experiment: ELISA, hTIM-3-hFc coated at 1 ug/ml; antibody 66.7 nM.
In experiment [9] the target is human TIM-3 protein on human PBMC (human) (UniProt Q8TDQ0). Briefly: cell-based or functional assay.
human TIM-3 protein on human PBMC (human), sequence (Q8TDQ0 22-301 limits assumed): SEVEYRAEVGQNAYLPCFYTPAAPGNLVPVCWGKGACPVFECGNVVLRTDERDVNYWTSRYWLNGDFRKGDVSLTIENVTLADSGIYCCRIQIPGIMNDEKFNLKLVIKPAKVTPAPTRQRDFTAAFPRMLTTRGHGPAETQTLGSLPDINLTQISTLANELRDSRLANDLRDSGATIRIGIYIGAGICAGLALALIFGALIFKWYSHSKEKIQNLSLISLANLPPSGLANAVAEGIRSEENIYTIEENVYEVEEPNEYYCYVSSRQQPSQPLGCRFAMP
Experiment [10] concerns the target murine TIM-3 protein with hFc tag (mTIM-3-hFc protein) (mouse; human) (UniProt Q8VIM0). Kind of experiment: ELISA, coated mTIM-3-hFc; antibody 0 nM (blank).
In experiment [11] the target is monkey TIM-3 protein with hFc tag (cTIM-3-hFc protein) (monkey; human). Briefly: ELISA, coated cTIM-3-hFc; antibody 66.667 nM.
monkey TIM-3 protein with hFc tag (cTIM-3-hFc protein) (monkey; human), sequence (chain, as listed by the source): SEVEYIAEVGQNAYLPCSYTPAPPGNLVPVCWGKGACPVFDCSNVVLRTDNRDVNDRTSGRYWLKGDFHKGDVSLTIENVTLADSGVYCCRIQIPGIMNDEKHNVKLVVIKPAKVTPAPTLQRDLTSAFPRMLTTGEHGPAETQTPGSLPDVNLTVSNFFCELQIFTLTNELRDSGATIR
For experiment [12], the target named is human TIM-3, full length, on cells (human) (UniProt Q8TDQ0). Kind of experiment: FACS, CHOK1-hTIM-3 cells; antibody 200 nM. (A flow cytometer gives signals particle by particle.)
human TIM-3, full length, on cells (human), sequence (Q8TDQ0 22-301 limits assumed): as the sequence (Q8TDQ0 22-301 limits assumed) above
Experiment [13] addresses murine TIM-3 protein with hFc tag (mTIM-3-hFc protein) (mouse; human) (UniProt Q8VIM0). Briefly: ELISA, coated mTIM-3-hFc; antibody 0.0067 nM.
In experiment [14] the target is monkey TIM-3 protein with hFc tag (cTIM-3-hFc protein) (monkey; human). Briefly: ELISA, coated cTIM-3-hFc; antibody 0.0001 nM.
The target is the same in experiment [15]. Briefly: ELISA, coated cTIM-3-hFc; antibody 0 nM (blank).
For experiment [16], the target named is human TIM-3, full length, on cells (human) (UniProt Q8TDQ0). Briefly: FACS, CHOK1-hTIM-3 cells; antibody 40 nM.
In experiment [17] the target is murine TIM-3 protein with hFc tag (mTIM-3-hFc protein) (mouse; human) (UniProt Q8VIM0). Briefly: ELISA, coated mTIM-3-hFc; antibody 0.6667 nM.
murine TIM-3 protein with hFc tag (mTIM-3-hFc protein) (mouse; human), sequence (Q8VIM0 other isoform, or with tags, fused parts or gaps): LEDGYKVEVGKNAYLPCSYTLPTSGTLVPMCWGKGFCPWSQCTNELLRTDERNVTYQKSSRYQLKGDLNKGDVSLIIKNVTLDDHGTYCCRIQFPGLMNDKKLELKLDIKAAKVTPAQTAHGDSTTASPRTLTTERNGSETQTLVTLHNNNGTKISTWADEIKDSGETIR
Experiment [18] addresses monkey TIM-3 protein with hFc tag (cTIM-3-hFc protein) (monkey; human). Briefly: ELISA, coated cTIM-3-hFc; antibody 0.0667 nM.
Experiment [19] has the same target. Briefly: ELISA, coated cTIM-3-hFc; antibody 6.6667 nM.
Experiment [20] addresses murine TIM-3 protein with hFc tag (mTIM-3-hFc protein) (mouse; human) (UniProt Q8VIM0). Briefly: ELISA, coated mTIM-3-hFc; antibody 0.0001 nM.
Experiment [21] addresses human TIM-3 protein with hFc tag (hTIM-3-hFc protein) (human) (UniProt Q8TDQ0). Kind of experiment: ELISA, coated hTIM-3-hFc; antibody 6.6667 nM.
Experiment [22] shares this target. Briefly: ELISA, coated hTIM-3-hFc; antibody 0.0067 nM.
For experiment [23], the target named is murine TIM-3 protein with hFc tag (mTIM-3-hFc protein) (mouse; human) (UniProt Q8VIM0). Briefly: ELISA, coated mTIM-3-hFc; antibody 66.667 nM.
The target in experiment [24] is human TIM-3 protein with hFc tag (hTIM-3-hFc protein) (human) (UniProt Q8TDQ0). Briefly: ELISA, coated hTIM-3-hFc; antibody 0 nM (blank).
human TIM-3 protein with hFc tag (hTIM-3-hFc protein) (human), sequence (Q8TDQ0 22-200): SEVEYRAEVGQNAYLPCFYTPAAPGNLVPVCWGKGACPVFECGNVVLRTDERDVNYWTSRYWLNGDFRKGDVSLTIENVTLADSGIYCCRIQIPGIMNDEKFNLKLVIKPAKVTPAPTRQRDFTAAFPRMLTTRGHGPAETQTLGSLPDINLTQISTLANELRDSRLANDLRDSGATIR
Experiment [25] deals with murine TIM-3 protein with hFc tag (mTIM-3-hFc protein) (mouse; human) (UniProt Q8VIM0). Briefly: ELISA, coated mTIM-3-hFc; antibody 6.6667 nM.
The target of experiment [26] is monkey TIM-3 protein with hFc tag (cTIM-3-hFc protein) (monkey; human). Briefly: ELISA, coated cTIM-3-hFc; antibody 0.6667 nM.
Experiment [27] has as its target human TIM-3, full length, on cells (human) (UniProt Q8TDQ0). Briefly: FACS, CHOK1-hTIM-3 cells; antibody 0.013 nM.
Experiment [28] has as its target human TIM-3 protein with hFc tag (hTIM-3-hFc protein) (human) (UniProt Q8TDQ0). Kind of experiment: ELISA, coated hTIM-3-hFc; antibody 0.0007 nM.
In experiment [29] the target is murine TIM-3 protein with hFc tag (mTIM-3-hFc protein) (mouse; human) (UniProt Q8VIM0). Briefly: ELISA, coated mTIM-3-hFc; antibody 0.0667 nM.
The target of experiment [30] is monkey TIM-3 protein with hFc tag (cTIM-3-hFc protein) (monkey; human). Kind of experiment: ELISA, coated cTIM-3-hFc; antibody 0.0007 nM.
For experiment [31], the target named is human TIM-3 protein with hFc tag (hTIM-3-hFc protein) (human) (UniProt Q8TDQ0). Kind of experiment: ELISA, coated hTIM-3-hFc; antibody 0.0667 nM.
Experiment [32] has the same target. Briefly: ELISA, coated hTIM-3-hFc; antibody 0.6667 nM.
For experiment [33], the target named is murine TIM-3 protein with hFc tag (mTIM-3-hFc protein) (mouse; human) (UniProt Q8VIM0). Briefly: ELISA, coated mTIM-3-hFc; antibody 0.0007 nM.
Experiment [34] deals with human TIM-3, full length, on cells (human) (UniProt Q8TDQ0). Briefly: FACS, CHOK1-hTIM-3 cells; antibody 1.6 nM.
For experiment [35] the target is unchanged. Briefly: FACS, CHOK1-hTIM-3 cells; antibody 0 nM (blank).
Experiment [36] deals with human TIM-3 protein with hFc tag (hTIM-3-hFc protein) (human) (UniProt Q8TDQ0). Kind of experiment: ELISA, coated hTIM-3-hFc; antibody 66.667 nM.
For experiment [37], the target named is monkey TIM-3 protein with hFc tag (cTIM-3-hFc protein) (monkey; human). Briefly: ELISA, coated cTIM-3-hFc; antibody 0.0067 nM.
Experiment [38] has as its target human TIM-3, full length, on cells (human) (UniProt Q8TDQ0). Kind of experiment: FACS, CHOK1-hTIM-3 cells; antibody 8 nM.
The target is the same in experiment [39]. Kind of experiment: FACS, CHOK1-hTIM-3 cells; antibody 0.064 nM.
In experiment [40] the target is human TIM-3 protein with hFc tag (hTIM-3-hFc protein) (human) (UniProt Q8TDQ0). Briefly: ELISA, coated hTIM-3-hFc; antibody 0.0001 nM.
The target in experiment [41] is human TIM-3, full length, on cells (human) (UniProt Q8TDQ0). Briefly: FACS, CHOK1-hTIM-3 cells; antibody 0.32 nM.
Experiment [42] deals with monkey TIM-3 on CHOK1 stable cell line (CHOK1-cTIM-3) (monkey). Briefly: FACS, CHOK1-cTIM-3 cells, 40 nM antibody.
monkey TIM-3 on CHOK1 stable cell line (CHOK1-cTIM-3) (monkey), sequence (chain, as listed by the source limits assumed): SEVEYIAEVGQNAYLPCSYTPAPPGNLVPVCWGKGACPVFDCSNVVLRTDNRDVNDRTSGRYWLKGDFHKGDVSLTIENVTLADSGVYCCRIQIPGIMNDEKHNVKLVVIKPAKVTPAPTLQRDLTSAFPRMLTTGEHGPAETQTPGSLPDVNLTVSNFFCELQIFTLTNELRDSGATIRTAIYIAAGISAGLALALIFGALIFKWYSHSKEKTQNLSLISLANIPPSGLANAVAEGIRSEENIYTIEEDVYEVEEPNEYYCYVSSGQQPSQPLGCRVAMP
For experiment [43] the target is unchanged. Kind of experiment: FACS, CHOK1-cTIM-3 cells, 1.6 nM antibody.
Experiment [44] shares this target. Briefly: FACS, CHOK1-cTIM-3 cells, 0.32 nM antibody.
Experiment [45] has the same target. Briefly: FACS, CHOK1-cTIM-3 cells, 8 nM antibody.
The target of experiment [46] is TIM-3 protein on human peripheral blood mononuclear lymphocytes (PBMC) (human) (UniProt Q8TDQ0). Kind of experiment: cell-based or functional assay.
TIM-3 protein on human peripheral blood mononuclear lymphocytes (PBMC) (human), sequence (Q8TDQ0 22-301 limits assumed): as the sequence (Q8TDQ0 22-301 limits assumed) above
For experiment [47], the target named is monkey TIM-3 on CHOK1 stable cell line (CHOK1-cTIM-3) (monkey). Briefly: FACS, CHOK1-cTIM-3 cells, 0.013 nM antibody.
The target is the same in experiment [48]. Kind of experiment: FACS, CHOK1-cTIM-3 cells, 0.064 nM antibody.
Experiment [49] has the same target. Kind of experiment: FACS, CHOK1-cTIM-3 cells, 200 nM antibody.
For experiment [50] the target is unchanged. Briefly: FACS, CHOK1-cTIM-3 cells, 0 nM antibody.

As to “commercially available anti-TIM-3 antibody (R&D system, MAB2365)”, the OD450 nm in experiment [1] was 3.23 and 3.27; in experiment [2], 0.6 and 0.59; in experiment [3], 3.45 and 3.42; in experiment [4], 1.78 and 1.75; in [5] it was 3.52 and 3.38; in experiment [6] it was 0.92 and 0.86. Further, the OD450 nm was 3.42 and 3.32 in [7]; 3.48 and 3.44 in experiment [8].
As to hIgG control (human IgG) (antibody), in experiment [9], the IFN-γ production, lymphocyte activation assay (donor Y), negative control IgG 0.1 µg/ml, N = 1 came out at 2100 pg/mL; the IFN-γ production, lymphocyte activation assay (donor Y), negative control IgG 0.1 µg/ml, N = 2 came out at 2020 pg/mL; the IFN-γ production, lymphocyte activation assay (donor Y), negative control IgG 1 µg/ml, N = 1 turned out to be 2190 pg/mL; the IFN-γ production, lymphocyte activation assay (donor Y), negative control IgG 1 µg/ml, N = 2 worked out at 1770 pg/mL. In addition, in experiment [9], the IFN-γ production, lymphocyte activation assay (donor Y), negative control IgG 10 µg/ml, N = 1 was 1930 pg/mL; the IFN-γ production, lymphocyte activation assay (donor Y), negative control IgG 10 µg/ml, N = 2 is 1980 pg/mL; the IFN-γ production, lymphocyte activation assay (donor Y), negative control IgG, concentration head printed '0' (fifth), N = 1 came out at 2000 pg/mL; the IFN-γ production, lymphocyte activation assay (donor Y), negative control IgG, concentration head printed '0' (fifth), N = 2 came out at 2070 pg/mL. In experiment [9], this substance came in with an IFN-γ production, lymphocyte activation assay (donor Y), negative control IgG, concentration head printed '0' (fourth), N = 1 of 1990 pg/mL and an IFN-γ production, lymphocyte activation assay (donor Y), negative control IgG, concentration head printed '0' (fourth), N = 2 of 2160 pg/mL.
Turning to rat IgG (negative control antibody), the OD450 in experiment [10] was 0.6; in [11], 0.68; in experiment [13], 0.62; in experiment [14], 0.54; in experiment [15], 0.55; in [17] it was 0.66. Further, the OD450 was found to be 0.54 in [18]; 0.58 in [19]; 0.63 in experiment [20]; 0.13 in experiment [21]; 0.12 in experiment [22]; 0.75 in experiment [23]. Further, the OD450 was found to be 0.11 in experiment [24]; 0.65 in experiment [25]; 0.55 in experiment [26]; 0.12 in experiment [28]; 0.64 in [29]; 0.55 in [30]. The OD450 in experiment [31] came out at 0.12; in experiment [32] it was 0.13; in [33], 0.67; in experiment [36] it was 0.22; in experiment [37], 0.57; in experiment [40] it was 0.11. The Mean fluorescence intensity came to 3.8 in [12]; 3.3 in experiment [16]; 3 in [27]; 3 in experiment [34]; 3 in experiment [35]; 3.1 in experiment [38]. For the same substance, the Mean fluorescence intensity in [39] and in experiment [41] was 3 throughout. Moreover, the OD450 nm was 0.6 and 0.59 in experiment [1]; 0.61 and 0.59 in experiment [2]; 0.63 in experiment [3]; 0.55 and 0.58 in experiment [4]; 0.63 and 0.65 in experiment [5]; 0.63 and 0.59 in [6]. Moreover, the OD450 nm is 0.69 and 0.58 in experiment [7]; 0.72 and 0.7 in [8].
On to rat IgG control (antibody), for which the Mean fluorescence intensity in experiment [42] came out at 3.7. For the same substance, in experiment [43], the Mean fluorescence intensity was found to be 3.6. This substance also came in with a Mean fluorescence intensity in [44] of 3.5. Also, the Mean fluorescence intensity in experiment [45] is 3.8. In experiment [46], the IFN production; antibody 0.001 µg/ml (4th head as printed), N = 1 was 738 pg/mL; the IFN production; antibody 0.001 µg/ml (4th head as printed), N = 2 came to 786 pg/mL; the IFN production; antibody 0.001 µg/ml (5th head as printed), N = 1 was 727 pg/mL; the IFN production; antibody 0.001 µg/ml (5th head as printed), N = 2 is 714 pg/mL. In experiment [46], this substance yielded an IFN production; antibody 0.1 µg/ml, N = 1 of 718 pg/mL; an IFN production; antibody 0.1 µg/ml, N = 2 of 664 pg/mL; an IFN production; antibody 1 µg/ml, N = 1 of 694 pg/mL; an IFN production; antibody 1 µg/ml, N = 2 of 574 pg/mL. Further, in experiment [46], the IFN production; antibody 10 µg/ml, N = 1 was 620 pg/mL and the IFN production; antibody 10 µg/ml, N = 2 was 582 pg/mL. Also, in [47], the Mean fluorescence intensity was 3.3. In experiment [48], this substance came in with a Mean fluorescence intensity of 3.4. Moreover, the Mean fluorescence intensity in experiment [49] amounted to 4.8. Further, the Mean fluorescence intensity in [50] worked out at 3.2.

The record behind these values is patent US20220033501A1.
